Measured values taken from patent publication US20240279281A1, “Peptide Inhibitors of Interleukin-23 Receptor” (Janssen Pharmaceutica NV, priority 2023, published 2024).
Starred links: 1 amine or outer side, 2 acyl side, 3 side chain; linkers in the order of their positions; H or OH if unused. Positions of bridges follow the written chain, without caps; N, C: chain ends. Non-standard residues stand in square brackets, D forms with d. No end group written: not given here. X5 = 2‑amino‑3‑(3-carbamoyl-1H-pyrazol-4-yl)propanoic acid, NC(=O)c1n[nH]cc1CC(N[*:1])C(=O)[*:2]; Trp(7-Me) = Cc1cccc2c(C[C@H](N)C(=O)O)c[nH]c12; 3Pal = N[C@@H](Cc1cccnc1)C(=O)O; Pen = CC(C)(S)[C@H](N)C(=O)O; Thp = NC1(C(=O)O)CCOCC1; Sar = CNCC(=O)O

Biological target: T1, interleukin-23 receptor (IL-23R), Q5VWK5
T1 chain: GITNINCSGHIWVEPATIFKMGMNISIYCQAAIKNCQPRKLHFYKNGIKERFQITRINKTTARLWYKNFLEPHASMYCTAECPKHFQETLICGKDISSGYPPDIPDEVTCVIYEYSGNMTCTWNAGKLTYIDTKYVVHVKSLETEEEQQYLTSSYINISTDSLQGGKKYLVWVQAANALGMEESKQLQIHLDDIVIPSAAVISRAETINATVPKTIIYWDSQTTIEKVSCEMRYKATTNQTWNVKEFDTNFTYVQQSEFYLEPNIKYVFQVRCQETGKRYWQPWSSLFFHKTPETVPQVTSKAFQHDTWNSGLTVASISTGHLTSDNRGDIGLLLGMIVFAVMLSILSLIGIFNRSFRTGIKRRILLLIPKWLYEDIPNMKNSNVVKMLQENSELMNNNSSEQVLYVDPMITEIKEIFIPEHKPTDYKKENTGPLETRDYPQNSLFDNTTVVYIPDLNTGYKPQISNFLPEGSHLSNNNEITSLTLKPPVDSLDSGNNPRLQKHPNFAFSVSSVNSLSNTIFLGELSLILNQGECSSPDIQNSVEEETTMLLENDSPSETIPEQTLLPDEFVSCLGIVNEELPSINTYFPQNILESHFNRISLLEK
Experiment: cell-based or functional assay

Binder | IL23R Reporter Assay IC50 [nM] | PBMC pSTAT3 IC50 [nM]
R[Pen]NT[Trp(7-Me)]K(Ac)[Pen][2‑amino‑3‑(4-(2-aminoethoxy)phenyl)propanoic acid][2‑amino‑3‑(6-hydroxynaphthalen-2-yl)propanoic acid][Thp]KN[3Pal][Sar] (not fully specified (bridges); ends and bridges not checked; also: K11: lipidated lysine, lipid not given here) [SEQ ID NO: 87] | < 10 | 
R[Pen]NT[Trp(7-Me)]K(Ac)[Pen][2‑amino‑3‑(4-(2-aminoethoxy)phenyl)propanoic acid][2‑amino‑3‑(5-bromonaphthalen-2-yl)propanoic acid][Thp]EN[Thp] (disulfide 2-7 (inferred); ends not checked) [SEQ ID NO: 443] |  | > 1
R[Pen]NT[Trp(7-Me)]K(Ac)[Pen][2‑amino‑3‑(4-(2-aminoethoxy)phenyl)propanoic acid][2‑amino‑3‑(6-(4-methoxyphenyl)naphthalen-2-yl)propanoic acid][Thp]EN[Thp] (disulfide 2-7 (inferred); ends not checked) [SEQ ID NO: 438] |  | > 1
R[Pen]NT[Trp(7-Me)]K(Ac)[Pen][2‑amino‑3‑(4-(2-aminoethoxy)phenyl)propanoic acid][2‑amino‑3‑(6-hydroxynaphthalen-2-yl)propanoic acid][Thp]EN[X5][Sar] (disulfide 2-7 (inferred); ends not checked) [SEQ ID NO: 440] |  | > 1
R[Pen]NT[Trp(7-Me)]K(Ac)[Pen][2‑amino‑3‑(4-(2-aminoethoxy)phenyl)propanoic acid][2‑amino‑3‑(6-hydroxynaphthalen-2-yl)propanoic acid][Thp]KN[3Pal][Sar] (not fully specified (bridges); ends and bridges not checked; also: K11: lipidated lysine, lipid not given here) [SEQ ID NO: 86] | < 10 | 
K[Pen]NT[Trp(7-Me)]K(Ac)[Pen][2‑amino‑3‑(4-(2-aminoethoxy)phenyl)propanoic acid][2‑amino‑3‑(6-hydroxynaphthalen-2-yl)propanoic acid][Thp]K(Ac)N[3Pal][Sar] (not fully specified (bridges); ends and bridges not checked; also: K1: lipidated lysine, lipid not given here) [SEQ ID NO: 85] | < 10 | 
R[Pen]NT[Trp(7-Me)]K[Pen][2‑amino‑3‑(4-(2-aminoethoxy)phenyl)propanoic acid][2‑amino‑3‑(6-hydroxynaphthalen-2-yl)propanoic acid][Thp]EN[3Pal][Sar] (not fully specified (bridges); ends and bridges not checked; also: K6: lipidated lysine, lipid not given here) [SEQ ID NO: 84] | < 10 | 
